# Results as given in patent US11969499B2, “Hydrogel delivery of sting immunotherapy for treatment cancer” (WILLIAM MARSH RICE UNIVERSITY, priority 2017, dated 2024).
# Key:
# [1] = CDN drug release kinetics from hydrogels (UV absorbance at 259 nm); format: physicochemical
# Protocol: CDN release kinetics. 30 μL CDN-loaded gel aliquots are deposited into 96 well plates with 200 μL of buffer added to the top of the gels at time point t=0. For all kinetics experiments, a Thermo Scientific Nanodrop 2000C Spectrophotometer is used to measure UV absorbance at 259 nm, the characteristic wavelength of maximum absorbance for the adenine nucleobases present in the CDN. See FIG. 1A for an example of preliminary release kinetics data.
# CDN drug release kinetics. To study the kinetics of CDN release from STINGel vs. collagen gel, 30 μL CDN-loaded gel aliquots were deposited into Falcon® 96 well flat bottom polystyrene plates (Becton Dickinson Labware, Franklin Lakes, NJ). For each experiment, cylindrical pucks of the 30 μL gel aliquots were created in each well, allowing the pipetted gels to shear recover for at least 5 mM before adding 200 μL of buffer (1×HBSS for STINGel, lx DPBS for collagen, according to gelation requirements) to the top of the gels at what was defined as t=0 for the start of kinetics experiments. The buffer height was approximately 2.5 mm, the gel thickness approximately 0.5 mm, and the gel's solvent exposed surface area approximately 12.6 mm^2.
# A Thermo Scientific Nanodrop 2000C Spectrophotometer was used to measure UV absorbance at 259 nm, the characteristic wavelength of maximum absorbance for the CDN's adenine nucleobases. An extinction coefficient of 24,000 M^−1 cm^−1 at 259 nm was used. Absorbance measurements were taken by removal of 1 μL aliquots from the surface of the buffers, measuring the increase in absorbance over time. Release of CDN was measured over the course of the first 24 hours and converted to total percent released, with additional measurements also made at 48 and 72 hours to confirm that the samples had reached equilibrium.
# [2] = In vivo subcutaneous hydrogel implants, histology (Masson's trichrome, H&E); settings: 910 μM CDN where loaded
# Protocol: In vivo subcutaneous implants. 200 μL subcutaneous injections are made in two separate 1-inch spaced sites on the dorsal flank. At tested time points mice are euthanized and the dorsal skin around the entire implant is removed, washed with PBS, and fixed in formalin for 24 hours prior to tissue processing (Wellings & Atherton, 1997; Guy & Fields, 1997). Details are provided in the Vertebrate Animal section. Tissue is processed to paraffin blocks, sectioned at 7 μm, deparaffinized and stained for cellular infiltrate using hematoxylin and eosin (H&E) and Masson's Trichrome. Here, and elsewhere, male and female populations will be assessed combined as well as separately to determine if sexual dichotomy exists in the biomaterial interaction and regenerative response.
# Subcutaneous experiments and histology. Male/female mice (C57BL/6 strain) of age 8-12 weeks were obtained for subcutaneous experiments, which were conducted with Rice IACUC approval and according to NIH guidelines. Mice were injected with 40 μL CDN-loaded hydrogel (910 μM CDN) or 100 μL unloaded hydrogel in each of four separate sites in the subcutaneous space of the dorsal flank. At days 3 and 7 the mice were euthanized and the dorsal skin around the entire implant was removed, fixed overnight in 10% neutral buffered formalin, processed and paraffin embedded by the Baylor College of Medicine Pathology Core, and finally sectioned at 5 μm thickness for Masson's trichrome staining and hematoxylin and eosin (H&E) staining (FIGS. 14A-F and 16A-F).
# [3] = 30 μL gels loaded with 910 μM CDN under 200 μL buffer
substance,measurement,setting,value
"K2(SL)6K2 (SEQ ID NO: 1) (Ac-KKSLSLSLSLSLSLKK-NH2) [MDP gel, self-assembling multidomain peptide hydrogel, acetylated N-terminus and C-terminal amide]","decrease in release rate compared to collagen control gels, factor",[1]; [3],8
same,maximum release of loaded CDN (plateau/equilibrium),[1]; [3],approximately 68%
same,release rate in the initial linear release phase,[1]; [3],1.0 nmol CDN/hour
same,time of CDN release until equilibrium with surrounding buffer,[1]; [3],14 to 15 h
same,release profile of gels (FIG. 3A),"[1]; CDN release, preliminary data",intermediate release rates
same,cellular infiltration of implant,"[2]; 3 days post subcutaneous injection, listed as MDP control",even infiltration of cells
same,cellular infiltration of implant,"[2]; 3 days post subcutaneous injection, listed as MDP unloaded control",even infiltration of cells
same,cellular infiltration of implant,"[2]; 3 days post subcutaneous injection, listed as unloaded MDP",Uniform cellular infiltration
same,cellular infiltration of implant,[2]; 7 days post subcutaneous injection,even infiltration of cells
